Source: PMC9741242, “Insights into the Structure of the Highly Glycosylated Ffase from Rhodotorula dairenensis Enhance Its Biotechnological Potential” (International Journal of Molecular Sciences, 2022)

Tests used:
[1] = target: D188A-RdINVΔ21–139, truncated inactivated mutant of Rhodotorula dairenensis β-fructofuranosidase (Rhodotorula dairenensis CECT 1416); assay: crystal structure; D188A-RdINVΔ21–139, deglycosylated, complexes with fructose, sucrose or raffinose; PEG 3350, Bis-Tris pH 5.5; space group P2(1), four molecules in the asymmetric unit
[2] = target: β-fructofuranosidase from Rhodotorula dairenensis (RdINV), wild type (Rhodotorula dairenensis CECT 1416); assay: crystal structure; wild-type RdINV, deglycosylated; 25% PEG 3350, 0.2 M ammonium acetate, 0.1 M Bis-Tris pH 5.5; space group C222(1), two molecules in the asymmetric unit

stoichiometry N [1] | stoichiometry N [2] | Substance
2 |  | D188A-RdINVΔ21–139, truncated inactivated mutant of Rhodotorula dairenensis β-fructofuranosidase (enzyme)
 | 2 | β-fructofuranosidase from Rhodotorula dairenensis (RdINV), wild type (enzyme)
